According to patent publication US20140087995A1 (published 2014):
Numbered stars: 1 amine (or outer) side, 2 acyl side, 3 side chain; on linkers, the order of the positions; unused ones are H or OH. Bridge positions count the residues as written; N and C are the ends. Side chains are listed from the residue outwards. Ends that are not written are not given here. * marks the point of attachment. C20 diacid = O=C(O)CCCCCCCCCCCCCCCCCCC(=O)*; C18 diacid = O=C(O)CCCCCCCCCCCCCCCCC(=O)*; C16 diacid = O=C(O)CCCCCCCCCCCCCCC(=O)*; γGlu = O=C(O)[C@H](CCC(=O)[*:2])N[*:1]

T1: human amylin receptor (human, UniProt P30988 25-474; O60896 24-148, limits assumed)
T1 construct: whole, on cells; Calcitonin receptor plus RAMP-3 gives the amylin 3(a) receptor; membranes of Amylin 3(a)/CRE-luc cells were used; also called hAmylin-R; hAmylinR
T1 sequence (looked up) 1: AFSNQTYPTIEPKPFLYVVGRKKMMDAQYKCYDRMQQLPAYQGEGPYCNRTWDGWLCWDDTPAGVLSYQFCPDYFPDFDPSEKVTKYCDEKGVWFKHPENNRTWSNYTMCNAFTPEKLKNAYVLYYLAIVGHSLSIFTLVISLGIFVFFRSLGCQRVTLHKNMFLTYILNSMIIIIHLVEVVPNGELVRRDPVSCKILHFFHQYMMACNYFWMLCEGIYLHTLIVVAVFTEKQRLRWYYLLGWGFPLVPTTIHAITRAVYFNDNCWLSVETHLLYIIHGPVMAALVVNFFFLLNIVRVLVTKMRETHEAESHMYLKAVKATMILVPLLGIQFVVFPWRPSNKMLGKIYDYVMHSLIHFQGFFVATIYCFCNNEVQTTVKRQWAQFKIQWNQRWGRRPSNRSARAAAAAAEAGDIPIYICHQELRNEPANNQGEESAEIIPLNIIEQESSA
T1 sequence (looked up) 2: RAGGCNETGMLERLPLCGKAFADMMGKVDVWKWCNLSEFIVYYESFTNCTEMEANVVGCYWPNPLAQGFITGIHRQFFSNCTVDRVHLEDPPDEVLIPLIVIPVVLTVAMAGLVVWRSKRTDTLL


molecular target: T1, human amylin receptor; assay: SPA competition binding, displacement of 125I-rat amylin from membranes with human amylin 3(a) receptor (Assay V)
Procedure, shortened: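 Membranes from BHK Amylin 3(a)/CRE-luc cells (35 ng/μL final) were mixed with SPA beads and test compounds in 50 mM Hepes pH 7.4 with 1 mM CaCl2, 5 mM MgCl₂, 0.1% OA and 0.02% Tween20. Incubation ran 120 min at 25° C with shaking; IC₅₀ came from one-site competition fitting.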

Row | Binder | IC50 [pM]
1 | K([γGlu-C16 diacid])CNTATCATQRLANFLRHSSPNFGAIPSSTNVGHNTY-NH2 (disulfide 2-7; N-terminus assumed; SMILES CC[C@H](C)[C@H](NC(=O)[C@H](C)NC(=O)CNC(=O)[C@H](Cc1ccccc1)NC(=O)[C@H](CC(N)=O)NC(=O)[C@@H]1CCCN1C(=O)[C@H](CO)NC(=O)[C@H](CO)NC(=O)[C@H](Cc1c[nH]cn1)NC(=O)[C@H](CCCNC(=N)N)NC(=O)[C@H](CC(C)C)NC(=O)[C@H](Cc1ccccc1)NC(=O)[C@H](CC(N)=O)NC(=O)[C@H](C)NC(=O)[C@H](CC(C)C)NC(=O)[C@H](CCCNC(=N)N)NC(=O)[C@H](CCC(N)=O)NC(=O)[C@@H](NC(=O)[C@H](C)NC(=O)[C@@H]1CSSC[C@H](NC(=O)[C@@H](N)CCCCNC(=O)CC[C@H](NC(=O)CCCCCCCCCCCCCCC(=O)O)C(=O)O)C(=O)N[C@@H](CC(N)=O)C(=O)N[C@@H]([C@@H](C)O)C(=O)N[C@@H](C)C(=O)N[C@@H]([C@@H](C)O)C(=O)N1)[C@@H](C)O)C(=O)N1CCC[C@H]1C(=O)N[C@@H](CO)C(=O)N[C@@H](CO)C(=O)N[C@H](C(=O)N[C@@H](CC(N)=O)C(=O)N[C@H](C(=O)NCC(=O)N[C@@H](Cc1c[nH]cn1)C(=O)N[C@@H](CC(N)=O)C(=O)N[C@H](C(=O)N[C@@H](Cc1ccc(O)cc1)C(N)=O)[C@@H](C)O)C(C)C)[C@@H](C)O, also called 17R, 21P, 27P, 34H) [N^ε1-[(4S)-4-carboxy-4-(15-carboxypentadecanoylamino)butanoyl]-[Arg17,Pro21,Pro27,His34]-h-amylin] | 580
2 | K([γGlu-C20 diacid])CNTATCATQRLARFLRHSSPNFGAIPSSTNVGPNTY-NH2 (disulfide 2-7; N-terminus assumed; SMILES CC[C@H](C)[C@H](NC(=O)[C@H](C)NC(=O)CNC(=O)[C@H](Cc1ccccc1)NC(=O)[C@H](CC(N)=O)NC(=O)[C@@H]1CCCN1C(=O)[C@H](CO)NC(=O)[C@H](CO)NC(=O)[C@H](Cc1c[nH]cn1)NC(=O)[C@H](CCCNC(=N)N)NC(=O)[C@H](CC(C)C)NC(=O)[C@H](Cc1ccccc1)NC(=O)[C@H](CCCNC(=N)N)NC(=O)[C@H](C)NC(=O)[C@H](CC(C)C)NC(=O)[C@H](CCCNC(=N)N)NC(=O)[C@H](CCC(N)=O)NC(=O)[C@@H](NC(=O)[C@H](C)NC(=O)[C@@H]1CSSC[C@H](NC(=O)[C@@H](N)CCCCNC(=O)CC[C@H](NC(=O)CCCCCCCCCCCCCCCCCCC(=O)O)C(=O)O)C(=O)N[C@@H](CC(N)=O)C(=O)N[C@@H]([C@@H](C)O)C(=O)N[C@@H](C)C(=O)N[C@@H]([C@@H](C)O)C(=O)N1)[C@@H](C)O)C(=O)N1CCC[C@H]1C(=O)N[C@@H](CO)C(=O)N[C@@H](CO)C(=O)N[C@H](C(=O)N[C@@H](CC(N)=O)C(=O)N[C@H](C(=O)NCC(=O)N1CCC[C@H]1C(=O)N[C@@H](CC(N)=O)C(=O)N[C@H](C(=O)N[C@@H](Cc1ccc(O)cc1)C(N)=O)[C@@H](C)O)C(C)C)[C@@H](C)O, also called 14R, 17R, 21P, 27P, 34P) | 649
3 | K([γGlu-C18 diacid])CNTATCATQRLANFLRHSSPNFGAIPSSTNVGHNTY-NH2 (disulfide 2-7; N-terminus assumed; SMILES CC[C@H](C)[C@H](NC(=O)[C@H](C)NC(=O)CNC(=O)[C@H](Cc1ccccc1)NC(=O)[C@H](CC(N)=O)NC(=O)[C@@H]1CCCN1C(=O)[C@H](CO)NC(=O)[C@H](CO)NC(=O)[C@H](Cc1c[nH]cn1)NC(=O)[C@H](CCCNC(=N)N)NC(=O)[C@H](CC(C)C)NC(=O)[C@H](Cc1ccccc1)NC(=O)[C@H](CC(N)=O)NC(=O)[C@H](C)NC(=O)[C@H](CC(C)C)NC(=O)[C@H](CCCNC(=N)N)NC(=O)[C@H](CCC(N)=O)NC(=O)[C@@H](NC(=O)[C@H](C)NC(=O)[C@@H]1CSSC[C@H](NC(=O)[C@@H](N)CCCCNC(=O)CC[C@H](NC(=O)CCCCCCCCCCCCCCCCC(=O)O)C(=O)O)C(=O)N[C@@H](CC(N)=O)C(=O)N[C@@H]([C@@H](C)O)C(=O)N[C@@H](C)C(=O)N[C@@H]([C@@H](C)O)C(=O)N1)[C@@H](C)O)C(=O)N1CCC[C@H]1C(=O)N[C@@H](CO)C(=O)N[C@@H](CO)C(=O)N[C@H](C(=O)N[C@@H](CC(N)=O)C(=O)N[C@H](C(=O)NCC(=O)N[C@@H](Cc1c[nH]cn1)C(=O)N[C@@H](CC(N)=O)C(=O)N[C@H](C(=O)N[C@@H](Cc1ccc(O)cc1)C(N)=O)[C@@H](C)O)C(C)C)[C@@H](C)O, also called 17R, 21P, 27P, 34H) [N^ε1-[(4S)-4-carboxy-4-(17-carboxyheptadecanoylamino)butanoyl]-[Arg17,Pro21,Pro27,His34]-h-amylin] | 382
4 | K([γGlu-C20 diacid])CNTATCATQRLAAFLRHSSPNFGAIPSSTNVGPNTY-NH2 (disulfide 2-7; N-terminus assumed; SMILES CC[C@H](C)[C@H](NC(=O)[C@H](C)NC(=O)CNC(=O)[C@H](Cc1ccccc1)NC(=O)[C@H](CC(N)=O)NC(=O)[C@@H]1CCCN1C(=O)[C@H](CO)NC(=O)[C@H](CO)NC(=O)[C@H](Cc1c[nH]cn1)NC(=O)[C@H](CCCNC(=N)N)NC(=O)[C@H](CC(C)C)NC(=O)[C@H](Cc1ccccc1)NC(=O)[C@H](C)NC(=O)[C@H](C)NC(=O)[C@H](CC(C)C)NC(=O)[C@H](CCCNC(=N)N)NC(=O)[C@H](CCC(N)=O)NC(=O)[C@@H](NC(=O)[C@H](C)NC(=O)[C@@H]1CSSC[C@H](NC(=O)[C@@H](N)CCCCNC(=O)CC[C@H](NC(=O)CCCCCCCCCCCCCCCCCCC(=O)O)C(=O)O)C(=O)N[C@@H](CC(N)=O)C(=O)N[C@@H]([C@@H](C)O)C(=O)N[C@@H](C)C(=O)N[C@@H]([C@@H](C)O)C(=O)N1)[C@@H](C)O)C(=O)N1CCC[C@H]1C(=O)N[C@@H](CO)C(=O)N[C@@H](CO)C(=O)N[C@H](C(=O)N[C@@H](CC(N)=O)C(=O)N[C@H](C(=O)NCC(=O)N1CCC[C@H]1C(=O)N[C@@H](CC(N)=O)C(=O)N[C@H](C(=O)N[C@@H](Cc1ccc(O)cc1)C(N)=O)[C@@H](C)O)C(C)C)[C@@H](C)O, also called 14A, 17R, 21P, 27P, 34P) | 148

Continued by falling IC50, values first:

Row | IC50 [pM] | Binder
5 | 790 | K([γGlu-C20 diacid])CNTATCATQRLANFLRHSSPNFGAIPSSTNVGRNTY-NH2 (disulfide 2-7; N-terminus assumed; SMILES CC[C@H](C)[C@H](NC(=O)[C@H](C)NC(=O)CNC(=O)[C@H](Cc1ccccc1)NC(=O)[C@H](CC(N)=O)NC(=O)[C@@H]1CCCN1C(=O)[C@H](CO)NC(=O)[C@H](CO)NC(=O)[C@H](Cc1c[nH]cn1)NC(=O)[C@H](CCCNC(=N)N)NC(=O)[C@H](CC(C)C)NC(=O)[C@H](Cc1ccccc1)NC(=O)[C@H](CC(N)=O)NC(=O)[C@H](C)NC(=O)[C@H](CC(C)C)NC(=O)[C@H](CCCNC(=N)N)NC(=O)[C@H](CCC(N)=O)NC(=O)[C@@H](NC(=O)[C@H](C)NC(=O)[C@@H]1CSSC[C@H](NC(=O)[C@@H](N)CCCCNC(=O)CC[C@H](NC(=O)CCCCCCCCCCCCCCCCCCC(=O)O)C(=O)O)C(=O)N[C@@H](CC(N)=O)C(=O)N[C@@H]([C@@H](C)O)C(=O)N[C@@H](C)C(=O)N[C@@H]([C@@H](C)O)C(=O)N1)[C@@H](C)O)C(=O)N1CCC[C@H]1C(=O)N[C@@H](CO)C(=O)N[C@@H](CO)C(=O)N[C@H](C(=O)N[C@@H](CC(N)=O)C(=O)N[C@H](C(=O)NCC(=O)N[C@@H](CCCNC(=N)N)C(=O)N[C@@H](CC(N)=O)C(=O)N[C@H](C(=O)N[C@@H](Cc1ccc(O)cc1)C(N)=O)[C@@H](C)O)C(C)C)[C@@H](C)O, also called 17R, 21P, 27P, 34R) [N^ε1-[(4S)-4-carboxy-4-(19-carboxynonadecanoylamino)butanoyl]-[Arg17,Pro21,Pro27,Arg34]-h-amylin]
6 | 176 | K([γGlu-C20 diacid])CNTATCATQRLAAFLRHSSPNFGAIPSSTNVGHNTY-NH2 (disulfide 2-7; N-terminus assumed; SMILES CC[C@H](C)[C@H](NC(=O)[C@H](C)NC(=O)CNC(=O)[C@H](Cc1ccccc1)NC(=O)[C@H](CC(N)=O)NC(=O)[C@@H]1CCCN1C(=O)[C@H](CO)NC(=O)[C@H](CO)NC(=O)[C@H](Cc1c[nH]cn1)NC(=O)[C@H](CCCNC(=N)N)NC(=O)[C@H](CC(C)C)NC(=O)[C@H](Cc1ccccc1)NC(=O)[C@H](C)NC(=O)[C@H](C)NC(=O)[C@H](CC(C)C)NC(=O)[C@H](CCCNC(=N)N)NC(=O)[C@H](CCC(N)=O)NC(=O)[C@@H](NC(=O)[C@H](C)NC(=O)[C@@H]1CSSC[C@H](NC(=O)[C@@H](N)CCCCNC(=O)CC[C@H](NC(=O)CCCCCCCCCCCCCCCCCCC(=O)O)C(=O)O)C(=O)N[C@@H](CC(N)=O)C(=O)N[C@@H]([C@@H](C)O)C(=O)N[C@@H](C)C(=O)N[C@@H]([C@@H](C)O)C(=O)N1)[C@@H](C)O)C(=O)N1CCC[C@H]1C(=O)N[C@@H](CO)C(=O)N[C@@H](CO)C(=O)N[C@H](C(=O)N[C@@H](CC(N)=O)C(=O)N[C@H](C(=O)NCC(=O)N[C@@H](Cc1c[nH]cn1)C(=O)N[C@@H](CC(N)=O)C(=O)N[C@H](C(=O)N[C@@H](Cc1ccc(O)cc1)C(N)=O)[C@@H](C)O)C(C)C)[C@@H](C)O, also called 14A, 17R, 21P, 27P, 34H)
